Biological target: CCR3 chemokine receptor (human) (UniProt P51677)
Experiment: cell-based or functional assay

Sequence of UniProt P51677 (P51677 whole entry): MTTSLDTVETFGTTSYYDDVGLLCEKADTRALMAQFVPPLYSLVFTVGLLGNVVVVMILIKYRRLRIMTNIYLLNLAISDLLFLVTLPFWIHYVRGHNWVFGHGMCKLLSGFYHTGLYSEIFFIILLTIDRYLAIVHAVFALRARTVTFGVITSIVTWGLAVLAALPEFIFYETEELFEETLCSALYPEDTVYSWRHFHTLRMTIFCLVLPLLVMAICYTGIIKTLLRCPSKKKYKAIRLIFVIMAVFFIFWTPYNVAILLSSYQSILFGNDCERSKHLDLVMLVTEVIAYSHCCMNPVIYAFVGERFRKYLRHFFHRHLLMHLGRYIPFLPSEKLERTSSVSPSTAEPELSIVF

“rhEotaxin (Biosource, cat# PMC1434) (from UniProt P51671 24-97) (ligand)” showed a chemotactic response of purified human eosinophils to eotaxin; decrease of migration after antisense oligonucleotides against CCR3 of 55.6%.

Reference: patent publication US20090215861A1
